Data published in US20250019432A1.

Biological target: CD33 on U937 cells (UniProt P20138)
Experiment: cell-based or functional assay

Chain of CD33 on U937 cells (P20138 18-364 limits assumed): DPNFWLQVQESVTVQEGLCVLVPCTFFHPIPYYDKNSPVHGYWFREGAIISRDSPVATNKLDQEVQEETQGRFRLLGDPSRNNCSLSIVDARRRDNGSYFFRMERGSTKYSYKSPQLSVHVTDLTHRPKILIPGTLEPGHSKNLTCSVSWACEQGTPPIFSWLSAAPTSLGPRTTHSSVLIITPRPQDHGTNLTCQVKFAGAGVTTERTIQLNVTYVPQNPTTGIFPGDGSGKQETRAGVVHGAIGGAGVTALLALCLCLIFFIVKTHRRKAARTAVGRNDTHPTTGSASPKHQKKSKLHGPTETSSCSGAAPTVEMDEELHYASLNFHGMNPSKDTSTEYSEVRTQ

CD33 % surface expression, 0 min: 100%
CD33 % surface expression, 15 min: 79%
CD33 % surface expression, 30 min: 72%
CD33 % surface expression, 45 min: 68%
CD33 % surface expression, 90 min: 53%
CD33 % surface expression, 120 min: 48%
MFI of pH sensitive dye, CD33 complexes, 0 hours: 20.8
MFI of pH sensitive dye, CD33 complexes, 4 hours: 26
MFI of pH sensitive dye, CD33 complexes, 24 hours: 31.9
Substance: anti-CD33 antibody P67.6
